Experimental findings from US10287317B2, “Proprotein convertase subtilisin kexin type 9 (PCSK9) allosteric binding ligands to modulate serum low density lipoprotein (LDL) levels” (SRX Cardio, LLC, priority 2013, dated 2019) are described below.

The target in this test is T1, PCSK9-WT protein (Homo sapiens, UniProt Q8NBP7).
T1 construct: V5
The experiment in a line: Cellular diI-LDL uptake in HuH7 cells with PCSK9-WT. The class given is cell-based. The following applies: HuH7, 1.0 μg/ml PCSK9-WT, 100 uM peptide (FIG. 2). As for the experimental part:
HuH7 cells were incubated in a 96-well plate for a total of 20 h in the absence (Cnt) or presence of 1.0 μg/ml PCSK9-WT protein alone (WT) or mixed with 100 uM of various SRX peptides. After 16 h, dil-LDL (5 ug/ml) was added to the incubation mixtures. After 4 h, fluorescence was measured (Ex: 520 nm/Em: 575 nm; cutoff: 550 nm). Dil-LDL uptake is calculated as RFU corrected for the number of cells.
LDL internalization was measured by uptake of a fluorescently tagged LDL molecule (diI-LDL) in the absence of exogenous PCSK9 (Cnt), in the presence of exogenous PCSK9 (normal PCSK9=WT, D374Y mutant PCSK9=DY), or in the presence of PCSK9 and a tested peptide (indicated as SRX##, or SRX if a single peptide results is shown in a graph).
Cells, such as HepG2, HuH7, FL83B or a cell line transfected with a short-hairpin PCSK9 knockdown sequence such as HepG2/shPCSK9, HuH7/shPCSK9, FL83B/shPCSK9, were seeded at 2×10^4 cells/well in a 96-well plate and cultured at 37 degC in RPMI+10% FBS. After approximately 24 hours, the cell media was aspirated off and replaced with RPMI+3-5 mg/mL LPDS (Lipoprotein Deficient Serum, Millipore) media for further experimentation. Benjannet et al., “Effects of the prosegment and pH on the activity of PCSK9: evidence for additional processing events” J Biol Chem. 285(52): 40965-40978 (2010).
Peptide activity was assessed by culturing cells with: i) no SRX peptide/PCSK9 protein complex (control, Cnt); ii) PCSK9 protein; and iii) SRX peptide/PCSK9 complex. Various permutations of these experimental conditions were also used, including: i) the addition of wild type PCSK9 (WT); ii) a mutant PCSK9 (e.g., D374Y mutant PCSK9, DY); iii) various SRX peptides and/or PCSK9 at the same concentration and/or combinations; iv) various SRX peptides and/or PCSK9 at different concentrations and/or combinations; v) the use of different cells, as mentioned above, with or without a transfected short-hairpin sequence; vi) a pre-incubation of the PCSK9 and SRX peptide (e.g., 1, hour, 2 hours, 3 hours, 4 hours etc.); vii) various temperatures including, but not limited to, body temperature (e.g., 37° C.), supraphysiologic temperature (e.g., 39° C.); and viii) with/without agitation (e.g., shaker or gentle periodic vortexing).
Cells were cultured using one of the combinations of conditions described in the preceding paragraph for 16 hours. After 16 hours, a quantity of diI-LDL (Low density lipoprotein coupled with 1,1′-dioctadecyl-3,3,3′,3′-tetramethylindocarbocyanine perchlorate) needed to bring the media concentration to 5 ug/mL of diI-LDL was added to the culture well and cells continued to be cultured under these new conditions for 4 additional hours. At the end of the 4-hour incubation period (20 total hours of cell culture), the cellular uptake was halted with the addition of 4% formaldehyde in 10 uM Hoechst 33342 in a solvent such as deionized autoclaved water or PBS, and specimens were incubated at 20° C. for 20 minutes. Cell specimens were rinsed twice with PBS and then fluorescence measured with excitation at 360 nm and emission detected at 460 nm to measure DNA content. Cell specimens were then be incubated with a 0.1% SDS in a 0.1 N NaOH solution while being shaken for 10 minutes. Fluorescence of the diI-LDL in the specimens were quantified using excitation at 530 nm and resulting emission at 580 nm.
Fluorescence measurements of diI-LDLR were normalized to estimated cell numbers, determined from the Hoechst fluorescence. Data was analyzed for the different experimental conditions and reported as percentage relative fluorescence units (RFU) of the Cnt specimen. Percent inhibition was calculated as the difference in RFU of a peptide exposed specimen to the RFU of PCSK9-no peptide, divided by the RFU difference in PCSK9-no peptide to RFU of Cnt specimen, also expressed as [(SRX:RFU)−(PCSK9-no peptide:RFU)]/[(PCSK9-no peptide:RFU)−(Cnt:RFU)]×100.

Where no end group is shown, it is not given here.

T1 sequence (Q8NBP7 153-692): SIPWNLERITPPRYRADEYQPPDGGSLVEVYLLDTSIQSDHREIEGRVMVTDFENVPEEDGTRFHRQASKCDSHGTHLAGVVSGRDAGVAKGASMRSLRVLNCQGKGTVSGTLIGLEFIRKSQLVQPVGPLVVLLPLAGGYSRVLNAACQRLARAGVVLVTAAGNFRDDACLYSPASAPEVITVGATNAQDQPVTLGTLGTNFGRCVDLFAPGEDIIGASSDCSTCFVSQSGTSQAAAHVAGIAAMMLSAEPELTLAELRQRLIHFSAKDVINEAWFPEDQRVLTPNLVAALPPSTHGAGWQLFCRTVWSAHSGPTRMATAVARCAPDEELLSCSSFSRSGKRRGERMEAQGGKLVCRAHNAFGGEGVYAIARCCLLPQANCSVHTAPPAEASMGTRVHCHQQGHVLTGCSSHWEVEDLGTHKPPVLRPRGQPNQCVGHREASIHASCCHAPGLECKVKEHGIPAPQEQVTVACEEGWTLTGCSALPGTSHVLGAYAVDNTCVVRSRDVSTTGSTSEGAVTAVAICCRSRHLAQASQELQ

In the case of “Val-Tyr-Val-Arg-Phe-Trp (VYVRFW; not fully specified (C-terminus); printed as Val-Tyr-Val-Arg-Phe-Trp) [Compound 1]”, the “LDL internalization (dil-LDL % uptake vs Cnt)” value is reported as “positively modulated (increased)”.
